According to patent publication US9150647 (KANCERA, dated 2015):
Each block holds one molecule with its values, some of them ahead of it.

Experiments:
[1] = biological target: human Ror1 (receptor tyrosine kinase ROR1, 937 amino acids, 105 kDa) (human) (UniProt Q01973); assay: flow cytometry, surface staining of cells of patient CLL-1
[2] = biological target: human Ror1 (receptor tyrosine kinase ROR1, 937 amino acids, 105 kDa) (human) (UniProt Q01973); assay: flow cytometry, surface staining of cells of patient CLL-2
[3] = biological target: human Ror1 (receptor tyrosine kinase ROR1, 937 amino acids, 105 kDa) (human) (UniProt Q01973); assay: flow cytometry, surface staining of cells of patient CLL-3
[4] = biological target: human Ror1 (receptor tyrosine kinase ROR1, 937 amino acids, 105 kDa) (human) (UniProt Q01973); assay: flow cytometry, surface staining of cells of patient CLL-4
[5] = biological target: human Ror1 (receptor tyrosine kinase ROR1, 937 amino acids, 105 kDa) (human) (UniProt Q01973); assay: flow cytometry, surface staining of cells of patient CLL-5
[6] = biological target: human Ror1 (receptor tyrosine kinase ROR1, 937 amino acids, 105 kDa) (human) (UniProt Q01973); assay: flow cytometry, surface staining of cells of patient CLL-6
[7] = biological target: human Ror1 (receptor tyrosine kinase ROR1, 937 amino acids, 105 kDa) (human) (UniProt Q01973); assay: flow cytometry, surface staining of cells of patient CLL-7
[8] = biological target: human Ror1 (receptor tyrosine kinase ROR1, 937 amino acids, 105 kDa) (human) (UniProt Q01973); assay: flow cytometry, surface staining of cells of patient CLL-8
[9] = biological target: human Ror1 (receptor tyrosine kinase ROR1, 937 amino acids, 105 kDa) (human) (UniProt Q01973); assay: flow cytometry, surface staining of cells of patient CLL-9
[10] = biological target: human Ror1 (receptor tyrosine kinase ROR1, 937 amino acids, 105 kDa) (human) (UniProt Q01973); assay: flow cytometry, surface staining of cells of patient CLL-10
[11] = biological target: human Ror1 (receptor tyrosine kinase ROR1, 937 amino acids, 105 kDa) (human) (UniProt Q01973); assay: flow cytometry, surface staining of cells of patient CLL-11
[12] = biological target: human Ror1 (receptor tyrosine kinase ROR1, 937 amino acids, 105 kDa) (human) (UniProt Q01973); assay: flow cytometry, surface staining of cells of patient CLL-12
[13] = biological target: human Ror1 (receptor tyrosine kinase ROR1, 937 amino acids, 105 kDa) (human) (UniProt Q01973); assay: flow cytometry, surface staining of cells of patient CLL-13
[14] = biological target: human Ror1 (receptor tyrosine kinase ROR1, 937 amino acids, 105 kDa) (human) (UniProt Q01973); assay: flow cytometry, surface staining of cells of patient CLL-14
[15] = biological target: human Ror1 (receptor tyrosine kinase ROR1, 937 amino acids, 105 kDa) (human) (UniProt Q01973); assay: flow cytometry, surface staining of cells of patient CLL-15
[16] = biological target: human Ror1 (receptor tyrosine kinase ROR1, 937 amino acids, 105 kDa) (human) (UniProt Q01973); assay: flow cytometry, surface staining of cells of patient CLL-16
[17] = biological target: human Ror1 (receptor tyrosine kinase ROR1, 937 amino acids, 105 kDa) (human) (UniProt Q01973); assay: flow cytometry, surface staining of cells of patient CLL-17
[18] = biological target: human Ror1 (receptor tyrosine kinase ROR1, 937 amino acids, 105 kDa) (human) (UniProt Q01973); assay: flow cytometry, surface staining of cells of patient CLL-18
[19] = biological target: human Ror1 (receptor tyrosine kinase ROR1, 937 amino acids, 105 kDa) (human) (UniProt Q01973); assay: flow cytometry, surface staining of CD19+ cells of patient CLL-1
[20] = biological target: human Ror1 (receptor tyrosine kinase ROR1, 937 amino acids, 105 kDa) (human) (UniProt Q01973); assay: flow cytometry, surface staining of CD19+ cells of patient CLL-2
[21] = biological target: human Ror1 (receptor tyrosine kinase ROR1, 937 amino acids, 105 kDa) (human) (UniProt Q01973); assay: flow cytometry, surface staining of CD19+ cells of patient CLL-3
[22] = biological target: human Ror1 (receptor tyrosine kinase ROR1, 937 amino acids, 105 kDa) (human) (UniProt Q01973); assay: flow cytometry, surface staining of CD19+ cells of patient CLL-4
[23] = biological target: human Ror1 (receptor tyrosine kinase ROR1, 937 amino acids, 105 kDa) (human) (UniProt Q01973); assay: flow cytometry, surface staining of CD19+ cells of patient CLL-5
[24] = biological target: human Ror1 (receptor tyrosine kinase ROR1, 937 amino acids, 105 kDa) (human) (UniProt Q01973); assay: flow cytometry, surface staining of CD19+ cells of patient CLL-6
[25] = biological target: human Ror1 (receptor tyrosine kinase ROR1, 937 amino acids, 105 kDa) (human) (UniProt Q01973); assay: flow cytometry, surface staining of CD19+ cells of patient CLL-7
[26] = biological target: human Ror1 (receptor tyrosine kinase ROR1, 937 amino acids, 105 kDa) (human) (UniProt Q01973); assay: flow cytometry, surface staining of CD19+ cells of patient CLL-8
[27] = biological target: human Ror1 (receptor tyrosine kinase ROR1, 937 amino acids, 105 kDa) (human) (UniProt Q01973); assay: flow cytometry, surface staining of CD19+ cells of patient CLL-9
[28] = biological target: human Ror1 (receptor tyrosine kinase ROR1, 937 amino acids, 105 kDa) (human) (UniProt Q01973); assay: flow cytometry, surface staining of CD19+ cells of patient CLL-10
[29] = biological target: human Ror1 (receptor tyrosine kinase ROR1, 937 amino acids, 105 kDa) (human) (UniProt Q01973); assay: flow cytometry, surface staining of CD19+ cells of patient CLL-11
[30] = biological target: human Ror1 (receptor tyrosine kinase ROR1, 937 amino acids, 105 kDa) (human) (UniProt Q01973); assay: flow cytometry, surface staining of CD19+ cells of patient CLL-12
[31] = biological target: human Ror1 (receptor tyrosine kinase ROR1, 937 amino acids, 105 kDa) (human) (UniProt Q01973); assay: flow cytometry, surface staining of CD19+ cells of patient CLL-13
[32] = biological target: human Ror1 (receptor tyrosine kinase ROR1, 937 amino acids, 105 kDa) (human) (UniProt Q01973); assay: flow cytometry, surface staining of CD19+ cells of patient CLL-14
[33] = biological target: human Ror1 (receptor tyrosine kinase ROR1, 937 amino acids, 105 kDa) (human) (UniProt Q01973); assay: flow cytometry, surface staining of CD19+ cells of patient CLL-15
[34] = biological target: human Ror1 (receptor tyrosine kinase ROR1, 937 amino acids, 105 kDa) (human) (UniProt Q01973); assay: flow cytometry, surface staining of CD19+ cells of patient CLL-16
[35] = biological target: human Ror1 (receptor tyrosine kinase ROR1, 937 amino acids, 105 kDa) (human) (UniProt Q01973); assay: flow cytometry, surface staining of CD19+ cells of patient CLL-17
[36] = biological target: human Ror1 (receptor tyrosine kinase ROR1, 937 amino acids, 105 kDa) (human) (UniProt Q01973); assay: flow cytometry, surface staining of CD19+ cells of patient CLL-18
[37] = biological target: T1, human Ror1 (receptor tyrosine kinase ROR1, 937 amino acids, 105 kDa) (human, UniProt Q01973 30-937); assay: flow cytometry, surface staining of CLL cells
T1 construct: whole, on cells; Endogenous Ror1 of primary CLL cells; the same entry is used for surface staining and for the 105 kDa band in Western blots of cell lysates; also called Ror1 protein
T1 sequence (Q01973 30-937): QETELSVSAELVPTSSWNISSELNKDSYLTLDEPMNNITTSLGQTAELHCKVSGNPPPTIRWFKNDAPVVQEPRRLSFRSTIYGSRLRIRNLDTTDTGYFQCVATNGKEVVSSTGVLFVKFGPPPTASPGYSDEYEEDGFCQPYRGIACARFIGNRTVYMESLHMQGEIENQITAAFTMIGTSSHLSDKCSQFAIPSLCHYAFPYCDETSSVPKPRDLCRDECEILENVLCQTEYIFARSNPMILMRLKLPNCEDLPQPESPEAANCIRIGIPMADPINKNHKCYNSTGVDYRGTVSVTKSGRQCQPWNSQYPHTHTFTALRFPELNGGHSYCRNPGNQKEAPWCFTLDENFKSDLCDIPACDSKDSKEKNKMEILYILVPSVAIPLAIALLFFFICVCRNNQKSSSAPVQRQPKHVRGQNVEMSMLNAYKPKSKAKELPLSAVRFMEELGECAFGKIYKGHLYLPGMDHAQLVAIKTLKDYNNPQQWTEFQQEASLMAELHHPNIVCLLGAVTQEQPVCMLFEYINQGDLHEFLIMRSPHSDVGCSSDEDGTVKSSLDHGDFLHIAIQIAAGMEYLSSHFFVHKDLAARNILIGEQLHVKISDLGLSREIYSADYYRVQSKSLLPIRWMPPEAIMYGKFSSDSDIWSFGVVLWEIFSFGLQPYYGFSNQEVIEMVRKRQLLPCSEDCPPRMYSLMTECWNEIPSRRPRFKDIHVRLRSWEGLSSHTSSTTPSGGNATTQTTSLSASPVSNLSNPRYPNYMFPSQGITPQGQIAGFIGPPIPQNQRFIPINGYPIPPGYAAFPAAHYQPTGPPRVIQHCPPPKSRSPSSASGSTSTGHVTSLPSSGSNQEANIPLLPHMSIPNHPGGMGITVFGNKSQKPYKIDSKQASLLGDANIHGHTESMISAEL

Sequence of human Ror1 (receptor tyrosine kinase ROR1, 937 amino acids, 105 kDa) (human) (Q01973 30-937): as above

Ror1 MFI [1]: 13
Ror1 MFI [2]: 25
Ror1 MFI [3]: 10
Ror1 MFI [4]: 20
Ror1 MFI [5]: 26
Ror1 MFI [6]: 35
Ror1 MFI [7]: 14
Ror1 MFI [8]: 20
Ror1 MFI [9]: 20
Ror1 MFI [10]: 10
Ror1 MFI [11]: 11
Ror1 MFI [12]: 15
Ror1 MFI [13]: 14
Ror1 MFI [14]: 45
Ror1 MFI [15]: 19
Ror1 MFI [16]: 18
Ror1 MFI [17]: 20
Ror1 MFI [18]: 33
Freq. (%) of Ror1+ CLL cells (CD19+) [19]: 80%
Freq. (%) of Ror1+ CLL cells (CD19+) [20]: 91%
Freq. (%) of Ror1+ CLL cells (CD19+) [21]: 36%
Freq. (%) of Ror1+ CLL cells (CD19+) [22]: 86%
Freq. (%) of Ror1+ CLL cells (CD19+) [23]: 80%
Freq. (%) of Ror1+ CLL cells (CD19+) [24]: 91%
Freq. (%) of Ror1+ CLL cells (CD19+) [25]: 37%
Freq. (%) of Ror1+ CLL cells (CD19+) [26]: 50%
Freq. (%) of Ror1+ CLL cells (CD19+) [27]: 69%
Freq. (%) of Ror1+ CLL cells (CD19+) [28]: 63%
Freq. (%) of Ror1+ CLL cells (CD19+) [29]: 65%
Freq. (%) of Ror1+ CLL cells (CD19+) [30]: 81%
Freq. (%) of Ror1+ CLL cells (CD19+) [31]: 84%
Freq. (%) of Ror1+ CLL cells (CD19+) [32]: 92%
Freq. (%) of Ror1+ CLL cells (CD19+) [33]: 61%
Freq. (%) of Ror1+ CLL cells (CD19+) [34]: 36%
Freq. (%) of Ror1+ CLL cells (CD19+) [35]: 79%
Freq. (%) of Ror1+ CLL cells (CD19+) [36]: 93%
Molecule: goat anti-Ror1 polyclonal antibody (N-Ror1com) (R&D systems)

binding result [37]: binds
B1: Anti-Ror1 CRD16 (clone 1C11) antibody (antibody, V domains shown)
VH: EVKLQESGAELARPGASVKMSCKASGYTFTSYTMHWVKQRPGQGLEWIGYINPSSGYTEYNQKFKDKTTLTADKSSSTAYMQLSSLTSGDSAVYYCARRVLWLRRGDYWGQGTILTVSA
VL: EVLITQTPSSLSASLGERVSLTCRASQDIGSSLNWLQQEPDGTIKRLIYATSSLDSGVPKRFSGSRSGSDYSLTISSLESEDFVDYYCLQYASSPYTFGGGTKLELK
notes: Mouse monoclonal antibody; also called Ror CRD (IgM)

binding result [37]: binds
B2: Anti-Ror1 Ig24 (clone 2A4) antibody (antibody, IgM, V domains shown)
VH: EVKLQQSGPELVKPGASVKISCKTSGYTFTEYTMHWVKQSHGKSLEWIGGINPNNGGTSYNQKFKGKATLTVDKSSSTAYMELRSLTSEDSAVYYCALQGFAYWGQGTPLTVSS
VL: EIEITQTPALMSASPGEKVTMTCSASSSVSYMYWYQQKPRSSPKPWIYLTSNLASGVPARFSGSGSGTSYSLTISSMEAEDAATYYCQQWSSNPYTFGGGTRLELK
notes: Mouse monoclonal antibody; also called Ror Ig24 (IgM)
